The results in this text go back to patent US20130323237A1 (Novartis, published 2013).

Test [1] concerns the target T1, recombinant human TSLP (R&D Systems) (human, UniProt Q969D9 29-159).
T1 construct: also called hTSLP; human thymic stromal lymphopoietin
The experiment in a line: BioVeris electrochemiluminescence screening, Fab in E. coli lysate on biotinylated TSLP coupled to streptavidin beads.
Procedure: BEL extracts were diluted in assay buffer (PBS/0.05% Tween20/0.5% BSA) for use in BioVeris screening.

For test [2], the target named is T1, recombinant human TSLP (R&D Systems). The test is described as follows: SPR (Biacore), biotinylated recombinant human TSLP on SA-chip, Fab as analyte. In general terms: Surface plasmon resonance follows binding to a sensor surface in real time, without labels.
Procedure: A respective amount of biotinylated human serum albumin (HSA) was immobilized on the reference flow cell. […] The Fabs were applied in concentration series of 16-500 nM at a flow rate of 20 μl/min. Association phase was set to 60 s and dissociation phase to 120 s.

B1: MOR05019 Fab (Fab, V domains shown)
VH: QVQLVESGGGLVQPGGSLRLSCAASGFTFSNHALSWVRQAPGKGLEWVSVISFDGVKFYADSVKGRFTISRDNSKNTLYLQMNSLRAEDTAVYYCARYYGYSYMDYWGQGTLVTVSS
VL: DIELTQPPSVSVAPGQTARISCSGDNLGSKYVHWYQQKPGQAPVLVIYADNNRPSGIPERFSGSNSGNTATLTISGTQAEDEADYYCQSYDHMLQVFGGGTKLTVLG
notes: also called MOR5019
As to B1, the binding result in test [1] is “binds”.

B2: MOR04609 Fab (Fab, V domains shown)
VH: QVQLQQSGPGLVKPSQTLSLTCAISGDSVSSNSAAWGWIRQSPGRGLEWLGRIYYRSKWLNDYAVSVKSRITINPDTSKNQFSLQLNSVTPEDTAVYYCARDGGWYIDVWGQGTLVTVSS
VL: DIELTQPPSVSVAPGQTARISCSGDNLGSYYANWYQQKPGQAPVLVIYEDKRPSGIPERFSGSNSGNTATLTISGTQAEDEADYYCQSFDSYHSDYVFGGGTKLTVLG
notes: carries two C-terminal tags (FLAG and 6xHis)
With B2, the binding result in test [2] is recorded as “binds”.

B3: MOR05008 Fab (Fab, V domains shown)
VH: QVQLVQSGAEVKKPGSSVKVSCKASGGTFSSYAISWVRQAPGQGLEWMGGIIPEFGFTNYAQKFQGRVTITADESTSTAYMELSSLRSEDTAVYYCARSGMFYSILFDYWGQGTLVTVSS
VL: DIQMTQSPSSLSASVGDRVTITCRASQDIYNYLNWYQQKPGKAPKLLIYGASSLQSGVPSRFSGSGSGTDFTLTISSLQPEDFAVYYCQQQNDYPLTFGQGTKVEIKR
On to B3, for which, in test [1], the binding result is given as “binds”.

B4: MOR05009 Fab (Fab, V domains shown)
VH: QVQLVQSGAEVKKPGSSVKVSCKASGGTFSSYAISWVRQAPGQGLEWMGHISPEFGFTNYAQKFQGRVTITADESTSTAYMELSSLRSEDTAVYYCARSGMFYSILFDYWGQGTLVTVSS
VL: DIQMTQSPSSLSASVGDRVTITCRASQDIYNYLNWYQQKPGKAPKLLIYGASSLQSGVPSRFSGSGSGTDFTLTISSLQPEDFAVYYCQQQNDYPLTFGQGTKVEIKR
Consider B4, for which, in test [1], the binding result is “binds”.

B5: MOR05024 Fab (Fab, V domains shown)
VH: QVQLVQSGAEVKKPGSSVKVSCKASGGTFSSYAISWVRQAPGQGLEWMGNIYPIFGYANYAQKFQGRVTITADESTSTAYMELSSLRSEDTAVYYCARYGQYGQHFSHGGMDVWGQGTLVTVSS
VL: DIQMTQSPSSLSASVGDRVTITCRASQDISISLTWYQQKPGKAPKLLIYGAFSLQSGVPSRFSGSGSGTDFTLTISSLQPEDFATYYCQQFWFEPVTFGQGTKVEIKR
Consider B5, for which the binding result in test [1] is recorded as “binds”.

B6: MOR05023 Fab (Fab, V domains shown)
VH: QVQLVQSGAEVKKPGSSVKVSCKASGGTFSSYAISWVRQAPGQGLEWMGNIYPIFGYANYAQKFQGRVTITADESTSTAYMELSSLRSEDTAVYYCARYGQYGQHFSHGGMDVWGQGTLVTVSS
VL: DIQMTQSPSSLSASVGDRVTITCRASQDISISLTWYQQKPGKAPKLLIYGAFSLQSGVPSRFSGSGSGTDFTLTISSLQPEDFATYYCQQFYFHSPTFGQGTKVEIKR
With B6, the binding result in test [1] was “binds”.

B7: MOR05027 Fab (Fab, V domains shown)
VH: QVQLVQSGAEVKKPGSSVKVSCKASGGTFSSYAISWVRQAPGQGLEWMGNIYPIFGYANYAQKFQGRVTITADESTSTAYMELSSLRSEDTAVYYCARYGQYGQHFSHGGMDVWGQGTLVTVSS
VL: DIQMTQSPSSLSASVGDRVTITCRASQDISISLTWYQQKPGKAPKLLIYGAFSLQSGVPSRFSGSGSGTDFTLTISSLQPEDFATYYCQQFWTEPVTFGQGTKVEIKR
Take B7: the binding result in test [1] is “binds”.

B8: MOR05025 Fab (Fab, V domains shown)
VH: QVQLVQSGAEVKKPGSSVKVSCKASGGTFSSYAISWVRQAPGQGLEWMGNIYPIFGYANYAQKFQGRVTITADESTSTAYMELSSLRSEDTAVYYCARYGQYGQHFSHGGMDVWGQGTLVTVSS
VL: DIQMTQSPSSLSASVGDRVTITCRASQDISISLTWYQQKPGKAPKLLIYGAFSLQSGVPSRFSGSGSGTDFTLTISSLQPEDFATYYCQQFWFHPVTFGQGTKVEIKR
Consider B8, for which the binding result in test [1] is given as “binds”.

B9: MOR05026 Fab (Fab, V domains shown)
VH: QVQLVQSGAEVKKPGSSVKVSCKASGGTFSSYAISWVRQAPGQGLEWMGNIYPIFGYANYAQKFQGRVTITADESTSTAYMELSSLRSEDTAVYYCARYGQYGQHFSHGGMDVWGQGTLVTVSS
VL: DIQMTQSPSSLSASVGDRVTITCRASQDISISLTWYQQKPGKAPKLLIYGAFSLQSGVPSRFSGSGSGTDFTLTISSLQPEDFATYYCQQFWSEPVTFGQGTKVEIKR
In the case of B9, the binding result in test [1] is listed as “binds”.

B10: MOR05013 Fab (Fab, V domains shown)
VH: QVQLVESGGGLVQPGGSLRLSCAASGFTFSSYYMSWVRQAPGKGLEWVSGIFFDGETYYADSVKGRFTISRDNSKNTLYLQMNSLRAEDTAVYYCARQQYFDHIDIWGQGTLVTVSS
VL: DIELTQPPSVSVAPGQTARISCGGDSLGGKYVYWYQQKPGQAPVLVIYGDSKRPSGIPERFSGSNSGNTATLTISGTQAEDEADYYCQSYTNALSTVFGGGTKLTVLG
For B10, the binding result in test [1] is on record as “binds”.

B11: MOR05010 Fab (Fab, V domains shown)
VH: QVQLVESGGGLVQPGGSLRLSCAASGFTFSSYYMSWVRQAPGKGLEWVSGIFFDGETYYAGSVKGRFTISRDNSKNTLYLQMNSLRAEDTAVYYCARQQYFDHIDIWGQGTLVTVSS
VL: DIELTQPPSVSVAPGQTARISCGGDSLGGKYVYWYQQKPGQAPVLVIYGDSKRPSGIPERFSGSNSGNTATLTISGTQAEDEADYYCQSYTNALSTVFGGGTKLTVLG
For the molecule B11, in test [1], the binding result was “binds”.

B12: MOR05015 Fab (Fab, V domains shown)
VH: QVQLVESGGGLVQPGGSLRLSCAASGFTFSSYYMSWVRQAPGKGLEWVSGTFFDGSTYYADSVKGRFTISRDNSKNTLYLQMNSLRAEDTAVYYCARQQYFDHIDIWGQGTLVTVSS
VL: DIELTQPPSVSVAPGQTARISCGGDSLGGKYVYWYQQKPGQAPVLVIYGDSKRPSGIPERFSGSNSGNTATLTISGTQAEDEADYYCQSYTNALSTVFGGGTKLTVLG
Turning to B12, the binding result in test [1] is “binds”.

B13: MOR05011 Fab (Fab, V domains shown)
VH: QVQLVESGGGLVQPGGSLRLSCAASGFTFSSYYMSWVRQAPGKGLEWVSGIFYDGSTYYPDSVKGRFTISRDNSKNTLYLQMNSLRAEDTAVYYCARQQYFDHIDIWGQGTLVTVSS
VL: DIELTQPPSVSVAPGQTARISCGGDSLGGKYVYWYQQKPGQAPVLVIYGDSKRPSGIPERFSGSNSGNTATLTISGTQAEDEADYYCQSYTNALSTVFGGGTKLTVLG
For the molecule B13, in test [1], the binding result is listed as “binds”.

B14: MOR05014 Fab (Fab, V domains shown)
VH: QVQLVESGGGLVQPGGSLRLSCAASGFTFSSYYMSWVRQAPGKGLEWVSGIFFDGTTYYADSVKGRFTISRDNSKNTLYLQMNSLRAEDTAVYYCARQQYFDHIDIWGQGTLVTVSS
VL: DIELTQPPSVSVAPGQTARISCGGDSLGGKYVYWYQQKPGQAPVLVIYGDSKRPSGIPERFSGSNSGNTATLTISGTQAEDEADYYCQSYTNALSTVFGGGTKLTVLG
Turning to B14, the binding result in test [1] was “binds”.

B15: MOR05012 Fab (Fab, V domains shown)
VH: QVQLVESGGGLVQPGGSLRLSCAASGFTFSSYYMSWVRQAPGKGLEWVSGIFFTGETYYPDSVKGRFTISRDNSKNTLYLQMNSLRAEDTAVYYCARQQYFDHIDIWGQGTLVTVSS
VL: DIELTQPPSVSVAPGQTARISCGGDSLGGKYVYWYQQKPGQAPVLVIYGDSKRPSGIPERFSGSNSGNTATLTISGTQAEDEADYYCQSYTNALSTVFGGGTKLTVLG
With B15, the binding result in test [1] was “binds”.

B16: MOR05016 Fab (Fab, V domains shown)
VH: QVQLVESGGGLVQPGGSLRLSCAASGFTFSSYYMSWVRQAPGKGLEWVSNISYDSSDTYYADSVKGRFTISRDNSKNTLYLQMNSLRAEDTAVYYCARQQYFDHIDIWGQGTLVTVSS
VL: DIELTQPPSVSVAPGQTARISCGGDSLGGKYVYWYQQKPGQAPVLVIYGDSKRPSGIPERFSGSNSGNTATLTISGTQAEDEADYYCQSYDLQSLNIVFGGGTKLTVLG
In the case of B16, the binding result in test [1] was “binds”.

B17: MOR05017 Fab (Fab, V domains shown)
VH: QVQLVESGGGLVQPGGSLRLSCAASGFTFSSYYMSWVRQAPGKGLEWVSNISYDSSDTYYADSVKGRFTISRDNSKNTLYLQMNSLRAEDTAVYYCARQQYFDHIDIWGQGTLVTVSS
VL: DIELTQPPSVSVAPGQTARISCGGDSLGGKYVYWYQQKPGQAPVLVIYGDSKRPSGIPERFSGSNSGNTATLTISGTQAEDEADYYCQSYDLKSLNVVFGGGTKLTVLG
As to B17, the binding result in test [1] is “binds”.

B18: MOR05018 Fab (Fab, V domains shown)
VH: QVQLVESGGGLVQPGGSLRLSCAASGFTFSSYYMSWVRQAPGKGLEWVSNISYDSSDTYYADSVKGRFTISRDNSKNTLYLQMNSLRAEDTAVYYCARQQYFDHIDIWGQGTLVTVSS
VL: DIELTQPPSVSVAPGQTARISCGGDSLGGKYVYWYQQKPGQAPVLVIYGDSKRPSGIPERFSGSNSGNTATLTISGTQAEDEADYYCQSYDLGSLNLVFGGGTKLTVLG
Consider B18, for which the binding result in test [1] is given as “binds”.

B19: MOR05020 Fab (Fab, V domains shown)
VH: QVQLVESGGGLVQPGGSLRLSCAASGFTFSNHALSWVRQAPGKGLEWVSGIQYDGSNTGYADSVKGRFTISRDNSKNTLYLQMNSLRAEDTAVYYCARYYGYSYMDYWGQGTLVTVSS
VL: DIELTQPPSVSVAPGQTARISCSGDNLGSKYVHWYQQKPGQAPVLVIYADNNRPSGIPERFSGSNSGNTATLTISGTQAEDEADYYCSSYDSNSIRVFGGGTKLTVLG
As to B19, the binding result in test [1] is listed as “binds”.

B20: MOR05021 Fab (Fab, V domains shown)
VH: QVQLVESGGGLVQPGGSLRLSCAASGFTFSNHALSWVRQAPGKGLEWVSGIQYDGSNTGYADSVKGRFTISRDNSKNTLYLQMNSLRAEDTAVYYCARYYGYSYMDYWGQGTLVTVSS
VL: DIELTQPPSVSVAPGQTARISCSGDNLGSKYVHWYQQKPGQAPVLVIYADNNRPSGIPERFSGSNSGNTATLTISGTQAEDEADYYCSSYDLDGVRVFGGGTKLTVLG
Take B20: the binding result in test [1] is recorded as “binds”.

B21: MOR05022 Fab (Fab, V domains shown)
VH: QVQLVESGGGLVQPGGSLRLSCAASGFTFSNHALSWVRQAPGKGLEWVSGIQYDGSNTGYADSVKGRFTISRDNSKNTLYLQMNSLRAEDTAVYYCARYYGYSYMDYWGQGTLVTVSS
VL: DIELTQPPSVSVAPGQTARISCSGDNLGSKYVHWYQQKPGQAPVLVIYADNNRPSGIPERFSGSNSGNTATLTISGTQAEDEADYYCSSYTTSGIRVFGGGTKLTVLG
In the case of B21, in test [1], the binding result is “binds”.
